Reference: the DeepSol protein solubility set

Assay: soluble on expression in E. coli; label from the status in PepcDB or PDB records

Soluble on expression in E. coli, not soluble:
MGSDKIHHHHHHMDDTDWIGETFTSTVGWDHLETLVDIGNRMAGSGGERAAAEATRDALAEYTRDARLSEFGIQGWERGDSAVHAGGSPVATQAHECIALPRSPAGEVTGELVDVGHGLPEDFEDADCEGQIVLARSDVPDWYDRYIHRREKYYHAVEAGAAGFIYRNHVDGVLPPTGSVGTADAPIGEIPAIGVASETGARLARRYAGENVTLSVDCETPKATSQNVHAELGPDTDERLLVTSHADAHDIAEGAMDNGAGTAMVVEVARALAGREDELATRVEFVAFGAEEVGLVGSNRLAGETTLDDVTAVLNFDGVVQGRTLKCYTHGFDALTAAAEDVADRLDHPISLTPEQGPHSDHWPFVQRGVPGYHVTSETGGEGRGWGHTHADTLDKLEPRTFREQAVLLTELAVALADDSARPAHKDPAEIANALEAQNLAEGMRITGDWPFGD, MGSDKIHHHHHHMDFIEVYPNALPNDLCDRLILAFEQHAGVVDGQTGNGVDLEKKISRDLTLDSFADLQPLKNELLGYTLKGTVDYFTKYSMALMGAVAVSVSDEQGQPVTLTPANFAALGAPRSDGLVKYLYRSGSINVQKYQQNKGGYPHWHSEQFPQNGHNEALHRVVLYMFYLNDMEEGGETEFYYQQRKISPKKGTMVIAPAGFTHTHRGNKPVSGDKYIATSWIMFNRAEQLYAVIA, MGSDKIHHHHHHMDGVKCQFVNTNGITLHVAAAGREDGPLIVLLHGFPEFWYGWKNQIKPLVDAGYRVIAPDQRGYNLSDKPEGIDSYRIDTLRDDIIGLITQFTDEKAIVIGHDWGGAVAWHLASTRPEYLEKLIAINIPHPHVMKTVTPLYPPQWLKSSYIAYFQLPDIPEASLRENDYDTLDKAIGLSDRPALFTSEDVSRYKEAWKQPGALTAMLNWYRALRKGSLAEKPSYETVPYRMIWGMEDRFLSRKLAKETERHCPNGHLIFVDEASHWINHEKPAIVNQLILEYLKNQ, MGSDKIHHHHHHMDIGHRMKELRIQYGLTQQELADRAELTKGFISQLERNQNSPSVGTLLDIIQCLGMTPAEFFTDSEPEQIVYKANDYFEKIDEEKNSKVEWIIPNAQTRSMEPVRLTLHPGGSSEIYLPQECEEFGYVIKGTVKLCYGGKVHTVKAGESFYFKAGKKHFIENKSSKDAMLIWVSNPPSF, MGSDKIHHHHHHMDIIVVGGGTSGLLSALALEKEGHNVIVFEKESYVGGLCRSEKIDGYSVDIGVHAITMLDNGPLIRLLNKYSRYLPNFRNYGDYYIRTDKLHRIPVSMHEWMTTPVIPNKDKVLITSKIMDLMTMGFTKDASVYDFVKEMGLSSTSVDFFNTIAYFLSGEDLENTPLWRFFTGAGYIPEDDILPFIYKDMKINPLKSTLVKKFGTERIINILNDGFISSIKNGSKKYINKFMTEHRYSTQGYPVGGVQSICNCITYSLRNTQIKNEEVKKITKNGKKYTVKTSEGEYTSDIIVYSAPAITLPKVAKINKIQKNKEKLSNIKFTKSTTVWIGDEKNYFPYLGSEIWIDNPCWASTVSNYDESLAPKGKHLMGFSFVNSKKEDALKTIESKLNLNTDKVDMLYVQETVPEQASCSIGQFFVYPKIDDTFFVVGTDSDPRSMGITRAAYSVEVMLSEFKNIYDTQKETAKK, MGSDKIHHHHHHMDIKVITRHAPSNYGSLLQSIATITTLERLGHKCEIIDYIRDDEHGLSAVKTNLNNKQRWSGNSLKKLAYIVLRYPEEKKAELNFREMRRKYLKLTQLCRTHDDLKRLDADIFMTGSDQVWGPTLNGHYDEAYFLSFVKDKRKIAYAASLGRTDFTAKILSEYKKLLSSYSGIAVRENTAVGLLRQMDIECAGQVLDPTLLLTGDEWSRMIKKDMGGKYVLVYQLHNNPALSKYAVRFAEHVGLPLYRVSPTFHQIRRGGKFIYLPDLPDFLSYIKNSTYFITDSFHGTAFALNFNRQFIEILPNNKTGNRNQSILQLTRLQDRIVTDYADCSISERMIDYERVNDILRKERIRSLGILKQLLRQ, MGSDKIHHHHHHMDINTKNLKKNAFRVTKRRGITASRIRVPGGHLEAKFLSMIQNIAENYGDGSVHITSRQGFEIPGIKFEDMPKVNELLQPIIEGLNINQETALQGYSASGTRNITACVGNRVCPYGCYDTTSFAQRIEKAVFPHDLHFKIALTGCPNDCAKVRMHDFGIMGMTEPHYESDTCVSCGACVKVCKKKSVGALSAVNYKVVRRGEKCIGCGECVLKCPTGAWTRSEKTYYRLTLLGRTGKKNPRLGEDFIKWVDEDSIIKIILNTYDYVTKYIDPNAPGGKEHIGYIVDRTGFEEFKKWALKDVKLPSIAEVYTPIYWNGIKY, MGSDKIHHHHHHMDKFKTIALFMSTIETGSFSATAKKHATDPSTVSKAIKRLEEQLGLQLLYRSTRQLSLTSAGQKYADTVGSLYQQLESCEHELKSANNSYSGALKINLPVSYGRVYMLPMLSRFKKAYPDIELEVSFNDQYVDMISDAVDVSIRSGTLNDSRLVAQKLSPMAFVICASSDLLATRKVDISNEGLVALPWVLFRFKQTGKTMPINFSYQGCHIDIEPKKVTIVDDGETMAQMCAEGLGLSLMPHFNAKALVVAGKMKVVAILDEFPSSGVFIVYPKRKDLPRRTQVFIEFVKDYLKEIGETPSKTWLDTSINSS, MGSDKIHHHHHHMDMTFKLQVFEGPLDLLLYLIEKNKVNIYDIPIVEITAQYMEYVNQMKKDNLDTLSEFLVMAATLLDIKSKMLLPKKEEEEQEQEDPRAELVQQLLEYKMYKCMANELKDRQLDAGKVWYKKKDIPDEVLAYEEPVNLEELVGDIRLSDLNRIFQSIMKRQEEKIDKVRSKFGKIEKEEVSLEEKMEYLTDYAASHKHFSFRGMLTASSSKVEVIVTFLAILELMKTGKLTIVQEHIFDDIRIESRIAA, MGSDKIHHHHHHMDNPVMSAITSLYPQVQFLQRQAASLLLYQSVLQTDVGIAFQELLQAIRYADADARGSLQAYGNYFHALATRKQNWEDYLVSQILIAENPFSKVTQQQDFKDLPPALISAVKHDLQVLQSLYECNSAVLSQWVQAVAHLPISPVVWYLEQDDMGSETALSLHHLEHWADAVEELATHYQKFGIGLFAQYRALRWQDGEFVGIPYPDPVKLGTLVGYESQQEALLKNTEFLLSGEKALHVLLYGSRGAGKSSLVKALLNEYSHRQLRLLEVSKADLKDLPKIVEQLRGVPQKFIIFVDDLSFEEDDDAFKALKVVLEGNLTARPHNVVVYATSNRRHLIREFFADRPSLKNNEEVHAGDTMQEKLSFSDRFGLTLTFESADQSTYLKIVRHLATQAGISISPEELEYQALQWATRHNGRSGRTAQQFIDFLKADTSVFATNNSILDTQS, MGSDKIHHHHHHMDQDDASPISSGVEGLDYVLRGGYAKYRSHLVEGRPGSGKTTLGLQFLIKGAAAGEKCLYITLSESRRELQSVAVRHGFSLDGIEILELVPPELSLDPSQLQTLVHSSDLELGETVQAALAEIERMKPDRVVFDSLSEIRLLSQGSLRYRRQVLALKSFFLLNNATVLLLDDLTAEHDDLNLHSISHGVIRMEQLSPIYGGERRRLRIIKMRGVQIRGGFHDFVIRPGGVMVFPRLVASEHEMAEHGTPATGNGSVDTLVGGGLDRGTSTLLMGPSGVGKSTIACSYCHSALKRGEHVLVLLFDETKRIFLARASGLGMDLGPFADNGNLLLEQIDPAELSPGELSSRIQSAVERSSARIVVIDSLTGYLNAMSEEQHLVLQMHEILTYLNQKGVVTILLLANHGLIGQMSAPVDMTYLCDSVMLLRFFESGGRLRRAISVVKKRVGPHEDTIREFKISATGLAVGEPLEEFRGILTGVPTYEGKQGNLLQDKAS, MGSDKIHHHHHHMDRINYKHLHYFWHVARAGSVTRAAGQLNVSMQTISGQITKLEQQLGRSLFRQQGRGLALTEAGRLALDYADRIFLLGEELETALADPLLDQTLRLAAGISDVVPKGIASRLLRPALRTNGRLRLSCGEGDFDELIGELGRHRLDLVLADRPVASGEQQQFQSWPLLRCPVQLLAAPELHARCQAGFPASLEQAPLLLPSRDNVLRRQLEHWFDANGVRPDLVGEFDDHALMETFARQGLGLLPAPVSPDGEADHPGLLPLGALDGVWEHYYVTASRRKLQHPALQAILQAWT, MGSDKIHHHHHHMDRSYRTPKAWLTKTSGFLQGYDYSLNPYVGCTFACSYCYVRKMPVALFHKGEWGDWVDIKQGVKETFSNELVRAKKRGRVHLFMSSSTDPYQPVEVEEKVTRSLLEVMADNPPDFLFVQTRSPLVTRDVDILQQLGKRVRVSLTIETDLESVRKAFAPKAPPIQGRKRALHALYQAGIPTQLTVAPILPSSDRFAESYVSIADQVCIDTFELGDGANGKRSRALRMPERLTELGYESWYEEAALEKVHQQFCAHFDESRVKLSQEGFLP
